Holding throughout (experiment): cryo-EM structure
In test [1] the target is microtubules prepared from porcine brain tubulin (porcine) (UniProt P02550).
Test [2] shares this target. This is another data set of the same source.
The target is the same in test [3]. The source holds these as a separate data set.

Like-named read-outs stand apart in the source and are kept apart here.

Chain of UniProt P02550 (P02550 whole entry, chain 1 of 2): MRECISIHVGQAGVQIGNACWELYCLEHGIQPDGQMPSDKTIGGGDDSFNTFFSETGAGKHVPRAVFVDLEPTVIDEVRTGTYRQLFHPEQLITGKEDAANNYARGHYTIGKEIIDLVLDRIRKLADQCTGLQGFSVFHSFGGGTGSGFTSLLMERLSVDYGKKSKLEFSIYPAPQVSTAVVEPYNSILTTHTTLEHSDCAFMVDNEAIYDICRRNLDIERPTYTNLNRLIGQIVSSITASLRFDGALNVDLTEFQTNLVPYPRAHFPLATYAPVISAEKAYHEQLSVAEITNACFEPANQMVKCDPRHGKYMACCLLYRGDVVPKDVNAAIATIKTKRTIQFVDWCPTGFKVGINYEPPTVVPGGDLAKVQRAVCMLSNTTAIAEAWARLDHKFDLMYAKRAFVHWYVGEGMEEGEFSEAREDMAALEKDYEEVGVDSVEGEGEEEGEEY
Chain of UniProt P02550 (P02554 whole entry, chain 2 of 2, further chain): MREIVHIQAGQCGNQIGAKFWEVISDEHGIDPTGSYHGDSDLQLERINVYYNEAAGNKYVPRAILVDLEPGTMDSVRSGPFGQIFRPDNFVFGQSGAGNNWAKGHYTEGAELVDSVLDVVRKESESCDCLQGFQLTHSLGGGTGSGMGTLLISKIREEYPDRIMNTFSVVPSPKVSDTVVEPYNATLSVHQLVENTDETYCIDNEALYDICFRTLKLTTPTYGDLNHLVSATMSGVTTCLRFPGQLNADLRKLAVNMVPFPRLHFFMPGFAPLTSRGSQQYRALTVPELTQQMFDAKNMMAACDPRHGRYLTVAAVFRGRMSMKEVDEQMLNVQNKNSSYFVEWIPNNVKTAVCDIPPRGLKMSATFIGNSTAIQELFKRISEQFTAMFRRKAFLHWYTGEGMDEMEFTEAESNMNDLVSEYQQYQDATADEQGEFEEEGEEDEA

“KIF1A(aa1-393)-LZ-strepII (from UniProt Q12756 1-393) (domain or fragment)”: the decorated fraction of the kinesin sites on tubulin in test [1] amounted to 32%; in test [2] it was 74%.

As for “KIF1A^P305L (KIF1A(aa1-393, P305L)-LZ-strepII) (from UniProt Q12756 1-393) (domain or fragment)”, the decorated fraction of the kinesin sites on tubulin in test [3] was 9%; in test [1] it was 25%.

Values taken from paper doi:10.1101/2023.02.02.526913.
